Test results as given in paper PMC12392964.

Molecular target: FvMYB1-GST (woodland strawberry (Fragaria vesca))
Assay: pull-down; FvSTOP1-His and FvbHLH33-His incubated together with FvMYB1-GST; detection with anti-His, bands quantified with ImageJ against the incubation alone

Row | binding strength with FvbHLH33-His present, against incubation alone (ImageJ) [times] | binding strength with FvSTOP1-His present, against incubation alone (ImageJ) [times] | Substance
1 | 0.31 |  | FvSTOP1-His (natural protein)
2 |  | 0.54 | FvbHLH33-His (natural protein)
